Paper doi:10.1101/2020.07.06.190884

What was measured:
[1] = target: His-tagged PrgU (Enterococcus faecalis (plasmid pCF10)); assay: SEC-MALS
[2] = target: His-tagged PrgU (Enterococcus faecalis (plasmid pCF10)); assay: GEMMA

His-tagged PrgU (natural protein)
stoichiometry N [1]: 2 | stoichiometry N [2]: 2
